Positions count from the first letter of the chain named. Names may count otherwise.
B1: FIXa-Y155F/K247N/N249S/R318Y/R338E/T343R (protein)
chain 1: YNSGKLEEFVQGNLERECMEEKCSFEEAREVFENTERTTEFWKQYVDGDQCESNPCLNGGSCKDDINSYECWCPFGFEGKNCELDVTCNIKNGRCEQFCKNSADNKVVCSCTEGYRLAENQKSCEPAVPFPCGRVSVSQTSKLTR
chain 2: VVGGEDAKPGQFPWQVVLNGKVDAFCGGSIVNEKWIVTAAHCVETGVKITVVAGEHNIEETEHTEQNRSVIRIIPHHNYNAAINKYNHDIALLELDEPLVLNSYVTPICIADKEYTNIFLKFGSGYVSGWGRVFHKGYSALVLQYLRVPLVDRATCLESTKFRIYNNMFCAGFHEGGRDSCQGDSGGPHVTEVEGTSFLTGIISWGEECAMKGKYGIYTKVSRYVNWIKEKTKLT
B2: FIXa-K228N/K247N/N249S/R318Y/R338E/T343R/E410N (protein)
chain 1: B1 chain 1
chain 2: B1 chain 2 with K48N, E230N
B3: FIXa-Y155F/R318Y/R338E/T343R/R403E/E410N (protein)
chain 1: B1 chain 1
chain 2: B1 chain 2 with N67K, S69N, R223E, E230N
B4: FIXa-N260S/R318Y/R338E/T343R/R403E/E410N (protein)
chain 1: B1 chain 1
chain 2: B1 chain 2 with N67K, S69N, N80S, R223E, E230N
B5: FIXa-K228N/K247N/N249S/R318Y/R338E/T343R/R403E/E410N (protein)
chain 1: B1 chain 1
chain 2: B1 chain 2 with K48N, R223E, E230N
B6: FIXa-R318Y/R338E/T343R/R403E/E410S (protein)
chain 1: B1 chain 1
chain 2: B1 chain 2 with N67K, S69N, R223E, E230S
B7: FIXa-Y155F/R318Y/T343R/R403E/E410N (protein)
chain 1: B1 chain 1
chain 2: B1 chain 2 with N67K, S69N, E158R, R223E, E230N
B8: FIXa-R338E/T343R/R403E/E410N (protein)
chain 1: B1 chain 1
chain 2: B1 chain 2 with N67K, S69N, Y138R, R223E, E230N
B9: FIXa-Y155F/R338E/T343R/E410N (protein)
chain 1: B1 chain 1
chain 2: B1 chain 2 with N67K, S69N, Y138R, E230N
B10: FIXa-Y155F/N260S/R338E/T343R/R403E (protein)
chain 1: B1 chain 1
chain 2: B1 chain 2 with N67K, S69N, N80S, Y138R, R223E
B11: FIXa-K228N/I251S/R318Y/R338E/R403E/E410N (protein)
chain 1: B1 chain 1
chain 2: B1 chain 2 with K48N, N67K, S69N, I71S, R163T, R223E, E230N
B12: FIXa-Y155F/K228N/K247N/N249S/R318Y/R338E/T343R/R403E/E410N (protein)
chain 1: B1 chain 1
chain 2: B1 chain 2 with K48N, R223E, E230N
B13: FIXa-K228N/R318Y/R338E/T343R/R403E/E410N (protein)
chain 1: B1 chain 1
chain 2: B1 chain 2 with K48N, N67K, S69N, R223E, E230N
B14: FIXa-Y155F/I251S/R338E/T343R/R403E (protein)
chain 1: B1 chain 1
chain 2: B1 chain 2 with N67K, S69N, I71S, Y138R, R223E
B15: FIXa-D104N/K106S/R318Y/R338E/T343R/R403E/E410N (protein)
chain 1: B1 chain 1 with D104N, K106S
chain 2: B1 chain 2 with N67K, S69N, R223E, E230N
B16: FIXa-Y155F/N260S/R318Y/R338E/T343R/R403E/E410N (protein)
chain 1: B1 chain 1
chain 2: B1 chain 2 with N67K, S69N, N80S, R223E, E230N
B17: FIXa-Y155F/K247N/N249S/R403E/E410N (protein)
chain 1: B1 chain 1
chain 2: B1 chain 2 with Y138R, E158R, R163T, R223E, E230N
B18: FIXa-Y155F/K247N/N249S/R338E/T343R/R403E/E410N (protein)
chain 1: B1 chain 1
chain 2: B1 chain 2 with Y138R, R223E, E230N
B19: FIXa-K247N/N249S/R318Y/R338E/T343R (protein)
chain 1: B1 chain 1
chain 2: B1 chain 2
B20: FIXa-Y155F/K247N/N249S/R318Y/T343R (protein)
chain 1: B1 chain 1
chain 2: B1 chain 2 with E158R
B21: FIXa-R338E/T343R/R403E (protein)
chain 1: B1 chain 1
chain 2: B1 chain 2 with N67K, S69N, Y138R, R223E
B22: FIXa-R318Y/R338E/T343R/R403E (protein)
chain 1: B1 chain 1
chain 2: B1 chain 2 with N67K, S69N, R223E
B23: FIXa-Y155F/K247N/N249S/R338E/R403E/E410N (protein)
chain 1: B1 chain 1
chain 2: B1 chain 2 with Y138R, R163T, R223E, E230N
B24: FIXa-K247N/N249S/R318Y/R338E/T343R/R403E (protein)
chain 1: B1 chain 1
chain 2: B1 chain 2 with R223E
B25: FIXa-Y155F/K247N/N249S/R318Y/R338E (protein)
chain 1: B1 chain 1
chain 2: B1 chain 2 with R163T
B26: FIXa-Y155F/K228N/I251S/R318Y/R338E/R403E/E410N (protein)
chain 1: B1 chain 1
chain 2: B1 chain 2 with K48N, N67K, S69N, I71S, R163T, R223E, E230N
B27: FIXa-Y155F/R338E/T343R/R403E (protein)
chain 1: B1 chain 1
chain 2: B1 chain 2 with N67K, S69N, Y138R, R223E
B28: FIXa-Y155F/K247N/N249S/R318Y/R338E/T343R/R403E (protein)
chain 1: B1 chain 1
chain 2: B1 chain 2 with R223E
B29: FIXa-K247N/N249S/R338E/T343R/R403E/E410N (protein)
chain 1: B1 chain 1
chain 2: B1 chain 2 with Y138R, R223E, E230N
B30: FIXa-Y155F/R318Y/R338E/T343R/E410N (protein)
chain 1: B1 chain 1
chain 2: B1 chain 2 with N67K, S69N, E230N
B31: FIXa-Y155F/R318Y/R338E/T343R/R403E (protein)
chain 1: B1 chain 1
chain 2: B1 chain 2 with N67K, S69N, R223E
B32: FIXa-Y155F/K247N/N249S/R318Y/R338E/T343R/R403E/E410N (protein)
chain 1: B1 chain 1
chain 2: B1 chain 2 with R223E, E230N
B33: FIXa-Y155F/K247N/N249S/T343R/R403E (protein)
chain 1: B1 chain 1
chain 2: B1 chain 2 with Y138R, E158R, R223E
B34: FIXa-Y155F/R318Y/T343R/E410N (protein)
chain 1: B1 chain 1
chain 2: B1 chain 2 with N67K, S69N, E158R, E230N
B35: FIXa-R318Y/T343R/E410N (protein)
chain 1: B1 chain 1
chain 2: B1 chain 2 with N67K, S69N, E158R, E230N
B36: FIXa-K247N/N249S/R338E/R403E/E410N (protein)
chain 1: B1 chain 1
chain 2: B1 chain 2 with Y138R, R163T, R223E, E230N
B37: FIXa-Y155F/K247N/N249S/T343R/E410N (protein)
chain 1: B1 chain 1
chain 2: B1 chain 2 with Y138R, E158R, E230N
B38: FIXa-Y155F/R338E/T343R/R403E/E410S (protein)
chain 1: B1 chain 1
chain 2: B1 chain 2 with N67K, S69N, Y138R, R223E, E230S
B39: FIXa-K228N/K247N/N249S/R318Y/R338E/T343R/R403E (protein)
chain 1: B1 chain 1
chain 2: B1 chain 2 with K48N, R223E
B40: FIXa-Y155F/R338E/T343R/R403E/E410N (protein)
chain 1: B1 chain 1
chain 2: B1 chain 2 with N67K, S69N, Y138R, R223E, E230N
B41: FIXa-K228N/K247N/N249S/R318Y/T343R/R403E/E410N (protein)
chain 1: B1 chain 1
chain 2: B1 chain 2 with K48N, E158R, R223E, E230N

Molecular target: Factor X (FX), P00742
Sequence (P00742 whole entry, looked up): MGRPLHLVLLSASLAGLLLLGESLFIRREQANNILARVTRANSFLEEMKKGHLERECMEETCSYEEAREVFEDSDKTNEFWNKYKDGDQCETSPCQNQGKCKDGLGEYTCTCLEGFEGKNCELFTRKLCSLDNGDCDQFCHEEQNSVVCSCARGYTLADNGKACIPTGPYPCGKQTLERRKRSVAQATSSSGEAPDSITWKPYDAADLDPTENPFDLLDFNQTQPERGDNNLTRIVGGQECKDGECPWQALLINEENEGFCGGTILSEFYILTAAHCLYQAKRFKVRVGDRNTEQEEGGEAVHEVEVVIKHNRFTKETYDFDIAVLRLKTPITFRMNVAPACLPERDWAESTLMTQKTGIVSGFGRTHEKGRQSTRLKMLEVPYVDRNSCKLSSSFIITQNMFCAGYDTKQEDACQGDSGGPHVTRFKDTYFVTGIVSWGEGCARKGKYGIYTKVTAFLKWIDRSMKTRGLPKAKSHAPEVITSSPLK

Protein | kcat [s⁻¹] | KM [µM] | kcat of FX activation by FIXa in the Xase complex (FVIIIa, PC/PS vesicles, Ca2+) [s⁻¹] | also measured
B1 | 8.5 |  |  | kcat/KM: 3.6e+08 M⁻¹ s⁻¹
B2 |  |  |  | kcat (s^-1) for activation of FX by FIXa in the Xase complex (FVIIIa, PC/PS vesicles, Ca2+), fluorogenic Spectrafluor FXa read-out: 4.7 s⁻¹; kcat/KM: 1.3e+08 M⁻¹ s⁻¹
B3 |  | 0.0272 | 7.8 | 
B4 |  | 0.0321 | 8.9 | 
B5 | 9.9 |  |  | 
B6 | 7.6 |  |  | 
B7 |  | 0.034 | 8.8 | 
B8 |  | 0.0347 | 9.8 | 
B9 | 6 |  |  | kcat/KM: 3.5e+08 M⁻¹ s⁻¹
B10 | 6.4 |  |  | 
B11 |  | 0.0364 | 7.5 | 
B12 | 9.4 |  |  | 
B13 |  |  |  | kcat (s^-1) for activation of FX by FIXa in the Xase complex (FVIIIa, PC/PS vesicles, Ca2+), fluorogenic Spectrafluor FXa read-out: 10.5 s⁻¹; kcat/KM: 2.7e+08 M⁻¹ s⁻¹
B14 | 5.9 |  |  | 
B15 |  | 0.0266 | 5.7 | 
B16 | 5.8 |  |  | 
B17 | 2.7 |  |  | kcat/KM: 2.4e+07 M⁻¹ s⁻¹
B18 | 9.8 |  |  | 
B19 | 8 |  |  | kcat/KM: 3.9e+08 M⁻¹ s⁻¹
B20 | 10.3 |  |  | 
B21 | 6.9 |  |  | 

Protein | kcat [s⁻¹] | KM [µM] | kcat of FX activation by FIXa in the Xase complex (FVIIIa, PC/PS vesicles, Ca2+) [s⁻¹] | also measured
B22 |  | 0.0443 | 6.7 | 
B23 |  | 0.0487 | 5 | 
B24 | 9.2 |  |  | 
B25 | 7.5 |  |  | 
B26 |  | 0.0393 | 5.3 | 
B27 | 5.2 |  |  | 
B28 | 10.6 |  |  | 
B29 | 10.8 |  |  | 
B30 |  | 0.0256 | 9.2 | 
B31 |  | 0.034 | 8.2 | 
B32 |  | 0.0257 | 9.7 | 
B33 | 4.7 |  |  | 
B34 |  |  |  | kcat (s^-1) for activation of FX by FIXa in the Xase complex (FVIIIa, PC/PS vesicles, Ca2+), fluorogenic Spectrafluor FXa read-out: 5 s⁻¹; kcat/KM: 1.5e+08 M⁻¹ s⁻¹
B35 |  |  |  | kcat (s^-1) for activation of FX by FIXa in the Xase complex (FVIIIa, PC/PS vesicles, Ca2+), fluorogenic Spectrafluor FXa read-out: 3.2 s⁻¹; kcat/KM: 6.2e+07 M⁻¹ s⁻¹
B36 |  | 0.025 | 4.8 | 
B37 | 7.9 |  |  | kcat/KM: 2.8e+08 M⁻¹ s⁻¹
B38 | 6.8 |  |  | 
B39 |  |  |  | kcat (s^-1) for activation of FX by FIXa in the Xase complex (FVIIIa, PC/PS vesicles, Ca2+), fluorogenic Spectrafluor FXa read-out: 10.9 s⁻¹; kcat/KM: 2.9e+08 M⁻¹ s⁻¹
B40 |  | 0.0259 | 5.7 | 
B41 |  |  |  | kcat (s^-1) for activation of FX by FIXa in the Xase complex (FVIIIa, PC/PS vesicles, Ca2+), fluorogenic Spectrafluor FXa read-out: 8.1 s⁻¹; kcat/KM: 7.1e+07 M⁻¹ s⁻¹

From patent US20210230570
